Reference: patent US20050042720A1, “Novel promiscuous G alpha protein mutants and their use” (7TM Pharma A/S, priority 2003, published 2005)

Target: Gq-coupled receptors
Test: cell-based or functional assay

B1: GαqG66D, P21279 1-359 (protein)
chain: MTLESIMACCLSEEAKEARRINDEIERHVRRDKRDARRELKLLLLGTGESGKSTFIKQMRIIHGSDYSDEDKRGFTKLVYQNIFTAMQAMIRAMDTLKIPYKYEHNKAHAQLVREVDVEKVSAFENPYVDAIKSLWNDPGIQECYDRRREYQLSDSTKYYLNDLDRVADPSYLPTQQDVLRVRVPTTGIIEYPFDLQSVIFRMVDVGGQRSERRKWIHCFENVTSIMFLVALSEYDQVLVESDNENRMEESKALFRTIITYPWFQNSSVILFLNKKDLLEEKIMYSHLVDYFPEYDGPQRDAQAAREFILKMFVDLNPDSDKIIYSHFTCATDTENIRFVFAAVKDTILQLNLKEYNLV
modifications: not fully specified
decrease in IP1 accumulation: 20%
